In US7943731, “Dimerizing peptides” (Massachusetts Institute of Technology):

B1: phage-selection target duplex, inverted repeat (dsDNA)
DNA 1: GGTTGCAGTGGGCGCGCCCACAGTACTTGAACGTAACG
DNA 2: CGTTACGTTCAAGTACTGTGGGCGCGCCCACTGCAACC
B2: single Zif12 site mutant duplex (dsDNA)
DNA 1: GGTTGCAGTGGGCGTATGCTCAGTACTTGAACGTAACG
DNA 2: CGTTACGTTCAAGTACTGAGCATACGCCCACTGCAACC
modifications: [none]

Columns and labels:
[1] = target: T1, fusion peptide 5-Zif12 (synthetic 15-mer + Zif268, UniProt P08046 P08046:335-391); assay: EMSA; up to 2.5 uM protein; conditions: tags: N-terminal Met-Ala, leader peptide; chain copies: 2 stated; label: 32P end-label (Klenow)
T1 sequence (P08046 335-391, one chain of several): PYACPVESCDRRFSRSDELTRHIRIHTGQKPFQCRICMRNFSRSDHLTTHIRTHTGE
Experimental: (§1) Figure 4B: FIG. 4(A) Sequences of peptide extensions (SEQ ID NOS: 24-29) isolated from the initial selection. Numbers in parentheses give the frequency of occurrences among the 45 clones sequenced. The clones for peptide 2 included a Glu-21-to-Asp mutation in the zinc finger region that may have been partially responsible for the affinity of this peptide. (B) Gel mobility-shift assays using purified fusion peptides 1, 3, and 5. Protein (2.5 µM, 250 nM, 25 nM, 250 pM, and no protein) was incubated with DNA containing either an inverted repeat of Zif12 sites or a single Zif12 site and then electrophoresed through native polyacrylamide gels. The reduced mobility of the inverted repeat probe in the presence of protein indicates the formation of protein-DNA complexes. Similar results were obtained with fusion peptides 2 and 6. Binding of peptide 4 depend on disulfide bond formation.
(§2) To assess their DNA-binding activity, peptides obtained in these initial selections were expressed in *Escherichia coli* (as fusions with Zif12), purified, and tested in gel mobility-shift assays (FIG. 4B). These fusion peptides bound specifically to duplex DNA containing an inverted repeat of the Zif12 sites, showing little or no activity with DNA containing a single site. The complexes with the inverted-repeat site all migrated similarly in the gel, with a mobility for the complexes that was consistent with the formation of dimers.

[2] = target: T2, fusion peptide 3-Zif12 (synthetic 15-mer + Zif268, UniProt P08046 P08046:335-391); assay: EMSA; up to 2.5 uM protein; conditions: tags: N-terminal Met-Ala, leader peptide; chain copies: 2 stated; label: 32P end-label (Klenow)
T2 sequence (P08046 335-391, one chain of several): as above
Experimental: as §1, §2

[3] = target: T3, fusion peptide 1-Zif12 (synthetic 15-mer + Zif268, UniProt P08046 P08046:335-391); assay: EMSA; up to 2.5 uM protein; conditions: tags: N-terminal Met-Ala, leader peptide; chain copies: 2 stated; label: 32P end-label (Klenow)
T3 sequence (P08046 335-391, one chain of several): as above
Experimental: as §1, §2

[4] = target: T4, fusion peptide 6-Zif12 (synthetic 15-mer + Zif268, UniProt P08046 P08046:335-391); assay: EMSA; similar results to peptides 1, 3, 5; conditions: tags: N-terminal Met-Ala, leader peptide; chain copies: 2 stated; label: 32P end-label (Klenow)
T4 sequence (P08046 335-391, one chain of several): as above
Experimental: as §1
as §2, with “The complexes with the inverted-repeat site all migrated similarly in the gel, with a mobility for the complexes that was consistent with the formation of dimers.” left out

[5] = target: Zif12 (fingers 1-2 of Zif268) (UniProt P08046 P08046:333-390); assay: EMSA; no shift under these conditions; conditions: tags: Gly-Ser dipeptide left at N terminus after GST removal; chain copies: 2 inferred (essentially noncooperative, one per half-site); label: 32P end-label (Klenow)
Sequence of Zif12 (fingers 1-2 of Zif268) (P08046 333-390, one chain of several): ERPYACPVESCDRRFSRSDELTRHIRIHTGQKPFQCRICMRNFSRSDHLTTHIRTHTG
Experimental: as §1
as §2, with “The complexes with the inverted-repeat site all migrated similarly in the gel, with a mobility for the complexes that was consistent with the formation of dimers.” left out

[6] = target: T1, fusion peptide 5-Zif12; assay: EMSA; little or no activity with single site; conditions: tags: N-terminal Met-Ala, leader peptide; chain copies: 2 stated; label: 32P end-label (Klenow)
Experimental: as §1, §2

[7] = target: T4, fusion peptide 6-Zif12; assay: EMSA; little or no activity with single site; conditions: tags: N-terminal Met-Ala, leader peptide; chain copies: 2 stated; label: 32P end-label (Klenow)
Experimental: as §1, §2

[8] = target: T2, fusion peptide 3-Zif12; assay: EMSA; little or no activity with single site; conditions: tags: N-terminal Met-Ala, leader peptide; chain copies: 2 stated; label: 32P end-label (Klenow)
Experimental: as §1, §2

[9] = target: T3, fusion peptide 1-Zif12; assay: EMSA; little or no activity with single site; conditions: tags: N-terminal Met-Ala, leader peptide; chain copies: 2 stated; label: 32P end-label (Klenow)
Experimental: as §1, §2

Row | Binder | binding result [1] | binding result [2] | binding result [3] | binding result [4] | binding result [5] | binding result [6] | binding result [7] | binding result [8] | binding result [9]
1 | B1 | binds | binds | binds | binds | no binding |  |  |  | 
2 | B2 |  |  |  |  | no binding | no binding | no binding | no binding | no binding
